These results are taken from publication PMC6448480, “A Two-Way Proteome Microarray Strategy to Identify Novel Mycobacterium tuberculosis-Human Interactors” (Frontiers in Cellular and Infection Microbiology, 2019).

In the experiment the target is T1, myc-tagged SMAD2 (human, UniProt Q15796 1-467, labeled with Cy3).
T1 construct: SMAD2, human; also called SMAD2-myc; source: cloned into pCMV-C-myc vector, purified as previously reported (Li et al., 2013)
As to the kind of experiment: peptide or protein array. To be noted: both partners purified.

T1 sequence (Q15796 whole entry): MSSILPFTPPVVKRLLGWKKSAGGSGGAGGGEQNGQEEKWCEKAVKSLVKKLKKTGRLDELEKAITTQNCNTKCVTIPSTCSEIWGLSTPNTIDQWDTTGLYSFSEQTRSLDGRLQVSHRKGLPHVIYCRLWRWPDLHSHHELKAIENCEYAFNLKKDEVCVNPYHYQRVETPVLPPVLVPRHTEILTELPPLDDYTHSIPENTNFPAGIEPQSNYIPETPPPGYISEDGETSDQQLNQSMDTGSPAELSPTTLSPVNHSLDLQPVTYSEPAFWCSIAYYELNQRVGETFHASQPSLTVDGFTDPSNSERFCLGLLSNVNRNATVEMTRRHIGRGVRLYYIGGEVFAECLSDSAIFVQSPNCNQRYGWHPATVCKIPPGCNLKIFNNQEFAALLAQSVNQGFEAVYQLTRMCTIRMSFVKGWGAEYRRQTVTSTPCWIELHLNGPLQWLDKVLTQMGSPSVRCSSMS

B1: Rv3241c (Ribosome hibernation promotion factor, Hpf) on the Mtb proteome microarray (natural protein)
chain: MSRLAVDSGQVLAEPKSNAEIVFKGRNVEIPDHFRIYVSQKLARLERFDRTIYLFDVELDHERNRRQRKSCQRVEITARGRGPVVRGEACADSFYAALESAVVKLESRLRRGKDRRKVHYGDKTPVSLAEATAVVPAPENGFNTRPAEAHDHDGAVVEREPGRIVRTKEHPAKPMSVDDALYQMELVGHDFFLFYDKDTERPSVVYRRHAYDYGLIRLA
As to B1, the binding result was “binds”.

B2: Rv0577 (Putative glyoxylase Cfp32) on the Mtb proteome microarray (natural protein)
chain: MPKRSEYRQGTPNWVDLQTTDQSAAKKFYTSLFGWGYDDNPVPGGGGVYSMATLNGEAVAAIAPMPPGAPEGMPPIWNTYIAVDDVDAVVDKVVPGGGQVMMPAFDIGDAGRMSFITDPTGAAVGLWQANRHIGATLVNETGTLIWNELLTDKPDLALAFYEAVVGLTHSSMEIAAGQNYRVLKAGDAEVGGCMEPPMPGVPNHWHVYFAVDDADATAAKAAAAGGQVIAEPADIPSVGRFAVLSDPQGAIFSVLKPAPQQ
For the molecule B2, the binding result is recorded as “binds”.
